Laboratory results: US20090291088A1, “THERAPEUTIC COMBINATIONS OF ANTI-IGF-1R ANTIBODIES AND OTHER COMPOUNDS” (Biogen Idec MA Inc., priority 2008, published 2009)

B1: M14-C03_Fab (antibody, V domains shown)
VH: EVQLLESGGGLVQPGGSLRLSCAASGFTFSKYMMSWVRQAPGKGLEWVSYISPSGGLTWYADSVKGRFTISRDNSKNTLYLQMNSLRAEDTAVYYCARDGARGYGMDVWGQGTTVTVSS
VL: DIQMTQSPATLSLSPGERATLSCRASQSVSSYLAWYQQKPGQAPRLLIYDASNRATGIPARFSGSGSGTDFTLTISSLEPEDFAVYYCQQRSNWPPEVTFGPGTKVDIK
B2: P1G10.2B8: murine anti-human IGF-1R monoclonal antibody from hybridoma; VH SEQ ID NO:58, VL SEQ ID NO:113 (antibody, V domains shown)
VH: QIQLVQSGPDLKKPGETVKISCKASGYTFTNHGMNWVKQAPGKDLKWMGWINTNTGEPTYADDFKGRFAFSLETSASTAYLQINNLKNEDTATYFCASPLYYRNGRYFDVWGAGTTVTVSS
VL: DIQMTQTTSSLSASLGDRVTISCRASQDISNYLNWYQQKPDGSVKLLIYYTSRLHSGVPSRFSGSGSGTDYSLTISNLEQEDIATYFCQQGKTLPWTFGGGTKLEIK
modifications: Antibody variable heavy chain sequence; Antibody variable light chain sequence

Tests used:
[1] = target: T1, recombinant human IGF-1R-10His (Homo sapiens, UniProt P08069); experiment: SPR, antibodies and Fabs on IGF-1R-His captured via PENTA-His antibody; format: binding; conditions: Fab fragment; 25° C.
T1 construct: denoted hIGF-1R(1-902)-His10, was purchased from R&D systems (Cat. No. 305-GR-050); purchased R&D Systems 305-GR-050
Experimental: Method: The binding activity of M13-C06, M14-C03, and […] to soluble IGF-1R was measured using surface plasmon resonance. Biotinylated PENTA-His Antibody (Qiagen, Inc.) was immobilized onto a Streptavidin coated Sensor Chip. Soluble/Dimeric IGF-1R-His ectodomain (R&D systems, Inc.) was captured on the surface via the PENTA-His antibody. Secondary injections of M13-C06, M14-C03, or M14-G11 Fabs (0.5 nM-100nM) were performed. The surfaces were regenerated with three short injections of acetate, pH 4.0.
M13-C06, M14-C03, and M14-G11 Fab antibodies were prepared by digestion with immobilized papain (Pierce Cat. No. 20341 (Pierce Biotechnology, Inc., Rockford, Ill.)). The papain resin was washed with 20 mM sodium phosphate pH 7.0; 10 mM EDTA; 20 mM Cysteine. Antibodies were mixed with the papain resin in 500 mM EDTA, 100 mM Cysteine pH 7.0 and digested for three hours in a 37° C. water bath followed by mixing on an inverting shaker overnight at room temperature. Completion of each digestion was determined by analytical size exclusion chromatography (SEC). The resin was removed from the digested protein with a sintered glass funnel filter and washed with 20 mM acetate pH 5.0. The flowthrough was collected and diluted 10-fold with 20 mM acetate pH 5.0. Fab fragments were purified by S-SEPHAROSE™ cation exchange chromatography using a linear salt gradient. […]

[2] = tested on: Colo-205; experiment: IGF driven tumor cell growth, CELL TITER-GLO, Colo-205; format: cell-based, human; conditions: colon cancer cell
Experimental: (§1) NCI-H23, Calu-6, Colo-205, Panc-1, BxPC-3 (ATCC) tumor lines were purchased from ATCC. Cell lines were grown in complete growth medium containing RPMI-1640 (ATCC), 10% fetal bovine serum (Irvine Scientific Inc.) and 50 μg/ml of Gentamycin (Gibco, Invitrogen). Trypsin-EDTA solution (Sigma) was used for removal of adherent cells from culture vessels. Phosphate buffered saline, pH 7.2, was from MediaTech Inc The 96-well clear bottom plates for luminescent assay was purchased from Wallac Inc.
(§2) Cells grown to 80% monolayers were, trypsinized, washed, resuspended and plated into 96-well plates in 200 μl of 2% growth medium at 8×10^3 cells/well for NCI-H23 and Colo-205 cells; and 5×10^3 cells/well for Calu-6, Panc-1 and BxPC-3 cells. After 24 hours, the culture medium was replaced with 100 μl of serum free medium (SFM), and 50 μl of serially diluted antibodies at 4× concentration was added. […] All treatments were done in triplicates. Cell growth was measured using the CELL TITER-GLO™ Luminescent Cell Viability Assay (Promega, Madison, Wis.). The 1:1 mixture of reagent and SFM was added at 200 μl/well. Luminescence was detected on Wallac (Boston, Mass.) plate reader.
(§3) The ability of the selected murine antibodies to inhibit IGF/IGF-1R dependent in vitro growth of several human tumor lines (Lung, H-23, Calu-6; Pancreas, BxPc-3, Panc-1, MiaPaCa and Colon Colo205) was measured by a proliferation assay described in Example 13.

[3] = target: T2, IGF-1R phosphorylation (Homo sapiens, UniProt P08069); experiment: Inhibition of IGF-1 and IGF-2 mediated IGF-1R phosphorylation in MCF-7 cells (ELISA); format: cell-based; conditions: murine monoclonal antibodies
T2 construct: wild type IGF-1R expressed on MCF-7 tumor cells; endogenous in cells; host or cells: MCF-7
Experimental: Cell lines: IGF1R expressing human breast carcinoma cell line MCF-7 (NCI) were maintained at 37° C. and 5% CO2 in MEM eagle (ATCC) containing 10% FBS, 1× non-essential amino acids, 2 mM L-glutamine, 1 mM sodium pyruvate and 1000 U/ml penicillin and streptomycin. Cells were sub-cultured twice weekly for maintenance and assay, and used with a maximum of 12 passages.
MCF-7 cells were plated in 2 ml growth media at 2×10^5 to 4.0×10^5 cells/well in Ploy-D-Lysine coated 12 well plates (BD Biosciences, #35-6470) and cultured at 37° C., 5% CO2. At 48 hours, media removed and cells serum starved overnight at 37° C., 5% CO2 Serum free media was removed and control or test antibodies at indicated concentration were added in 350 ul of fresh serum free media and incubated for 1 hour at room temperature, or alternately at 37° C. Fabs were tested at 200 nM, 20 nM and 2 nM concentration and the mAbs were tested at 67, 6.7 and 0.67 nM. The commercial anti-IGF-1R control antibody used was αIR3 (EMD biosciences, Oncogene Research products, #D27249). […] Ligand was incubated at […] for 37° C. antibody experiments. Cells were lysed in 1× cell lysis buffer (Cell Signal Technologies, #9803) with 1 mM PMSF for 1 hour at room temperature.
Cell lysates were added to ELISA plates pre-coated with IGF-1Rp antibody (Clone 1-2, Biosource International, #AHR0361) and incubated for 2 hours. Following which plates were washed and the plate bound phosphorylated receptor was detected with the biotin labeled anti-phosphotyrosine antibody 4G10 (Catalog #16-103, Upstate Cell Signaling Solutions (Lake Placid, N.Y. (now part of Millipore, Concord, Mass. (USA)) and streptavidin-HRP (BD Pharmingen, #554066). Assay is developed by addition of TMB substrate (Kierkegaard & Perry, #50-76-00) and color stopped by addition of […] (LabChem, Cat#LC25830-1). Optical density is measured at 450 nm using a Molecular Devices plate reader and percent inhibition over the ligand control is calculated for each antibody-ligand sample.
The effect of human anti-IGF-1R antibodies on IGF-1R signaling was evaluated using MCF-7 cells (human breast adenocarcinoma cells).

[4] = tested on: Calu-6; experiment: IGF driven tumor cell growth, CELL TITER-GLO, Calu-6; format: cell-based, human; conditions: lung cancer cells
Experimental: as §1, §2, §3

[5] = tested on: NCI-H23; experiment: IGF driven tumor cell growth, CELL TITER-GLO, H-23; format: cell-based, human; conditions: lung cancer cells
Experimental: as §1, §2, §3
A commercially available anti-IGF-1R antibody (IR3) was used as a positive control. The mouse IgG (anti-IDectin, IgG1) and human gamma 4 version of IDEC-152 antibody of irrelevant specificity were used as isotype matched controls for the experiments. […]

[6] = tested on: MCF-7; experiment: Ki67 inhibition in MCF-7 cells; format: cell-based, human; conditions: breast cancer cell
[7] = tested on: Panc-1; experiment: IGF driven tumor cell growth, CELL TITER-GLO, Panc-1; format: cell-based, human; conditions: pancreatic cancer cell
Experimental: as §1, §2, §3

[8] = target: T3, IGF-1R (Homo sapiens, UniProt P08069); experiment: Ligand blocking assay (RIA): 125I-IGF-1 / 125I-IGF-2 binding to immobilized IGF-1R; conditions: murine monoclonal antibodies
T3 construct: human IGF-1R(1-903)-Fc (denoted hIGF-1R-Fc, generated by Biogen Idec)
Text: Ligand blocking assay (RIA). […] Insulin (Arg-Insulin, Cat #01-207) was purchased from Upstate Cell Signaling Solutions (Lake Placid, N.Y. (now part of Millipore, Concord, Mass. (USA)). ^125I-rhIGF-1 (Cat # IM172), ^125I-rhIGF-2 (Cat# IM238) and ^125I-rhInsulin (Cat# IM166) were purchased from Amersham Biosciences (Piscataway, N.J.). AffiPure goat anti-human IgG, Fcγ fragment specific antibodies (Cat #109-005-098, Jackson ImmunoResearch, West Grove, Pa.) was used for IGF-1R-Fc capture. As detection antibody, goat anti-mouse IgG HRP (Cat #1030-05, Southern Biotech Birmingham, Ala.) was used.
Human insulin receptor α-subunit specific antibodies, Clone 83-14, (Cat #AHR0221, Biosource International, Inc., Camarillo, Calif.) and the 47-9 (Cat #E55502M, Biodesign International, Saco, M E) were used as positive controls blocking of insulin-insulin receptor binding experiments. Recombinant IGF-1R-Fc fusion protein was produced at Biogen Idec (Cambridge, Mass.).
As isotype matched mouse negative control antibodies, 2B8 (murine α-CD20.1gG,) and 2B8 mkm.G2a (murine α-CD20 MAb, IgG2a, Biogen Idec, Lot #NB3304-87, San Diego, Calif.) were used. The negative control for Fabs was R001-1B provided by Christilyn Graff (Biogen Idec, Cambridge, Mass.). PBS used in buffers was from BioWhittaker (Cat. # 17-513F, Walkersville, Md.).
Recombinant human IGF-1R (Histidine tagged version) or IGF-1R-Fc was coated onto IMMULON2 HB (high binding) Removawell strips (Dynex Technologies, Inc., cat. #6302) diluted with carbonate coating buffer pH 9.5 to a concentration of 250 ng/well. After overnight incubation at 4° C., the wells were washed three times with washing buffer (0.05% Tween 20/PBS) then blocked with blocking buffer (3% BSA/PBS) for one hour at room temperature. The blocking buffer was removed and the wells washed three more times. Antibody, Fab, or ligand preparations were diluted to desired concentration with dilution buffer (1% BSA/0.05% Tween 20/PBS) and plated at 50 μl per well in duplicate. After 45 minutes at room temperature, 100,000 cpm of either [125I] rhIGF-1 or [125I] rhIGF-2 in 50 μl dilution buffer was added per well. This was incubated at room temperature for one more hour. The wells were washed again three more times and left liquid free after the last wash. The air-dried wells were counted with the Isodata Gamma Counter.
Alternatively, Fabs were evaluated by a modified capture assay, where the IGF-1R-Fc was captured using anti-human IgG immobilized to a plate. Immobilization was carried out by overnight incubation of goat anti-human IgG, Fcγ fragment specific antibody (200 ng/well) in carbonate coating buffer. The wells were washed, blocked and 250 ng of IGF-1R-Fc was added per well.
The ligand blocking ability of the anti-IGF-1R antibody was determined by a solid phase RIA capture method as described in Example 3. […] After 1 hour of incubation at room temperature, the wells were washed and counted for bound radioactivity by a Gamma Counter. An isotype matched negative antibody control, IDEC-151 (human G4), was used. Percent (%) inhibition was calculated as =[1−(Ave.CPM with Ab)/(Ave.CPM with buffer)]×100%.

| Molecule | ka [1] [M⁻¹ s⁻¹] | kd [1] [s⁻¹] | Proliferation of Tumor Cells Colo-205 [2] | Inhibition of IGF-1R.pTyr IGF-1 [3] | Inhibition of IGF-1R.pTyr IGF-2 [3] | Proliferation of Tumor Cells Calu-6 [4] | Proliferation of Tumor Cells H-23 [5] | Proliferation of Tumor Cells MCF-7* (Ki67 Inhibit.) [6] | Proliferation of Tumor Cells Panc-1 [7] | IGF Blocking IGF-1 [8] |
| --- | --- | --- | --- | --- | --- | --- | --- | --- | --- | --- |
| B1 | 190000 | 0.00094 |  |  |  |  |  |  |  |  |
| B2 |  |  | ++ (>30%@1 μg/ml) | +++ (>30%@0.1 μg/ml) | +++ (>30%@0.1 μg/ml) | ++ (>30%@1 μg/ml) | +++ (>30%@0.1 μg/ml) | +++ (>50%@0.1 μg/ml) | + (>30%@10 μg/ml) | +++ (>40%@0.1 μg/ml) |
